Measurements: the supplement of paper PMC11780869

System: Bacillus subtilis
Experiment: cleaved RNA product abundance (RNA/gDNA barcode ratio) relative to median wild-type variant (ratio to wild type); higher = more accumulation of the downstream cleavage product
Conditions: cleavage site: cggR-gapA (positions -7 to +36 mutated)
Procedure, shortened: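 Oligos with a 9% error rate were used to build barcoded, mutagenized RNase Y cleavage-site windows within truncated aprE or tetM reporter mRNAs, which were integrated into the B. subtilis chromosome. Cultures were grown in LB at 37°C between OD600 0.0003 and 0.3. Cleaved RNA was gel-selected, reverse transcribed and barcode-sequenced, as were genomic DNA barcodes, and UMIs were collapsed. Cleaved product abundance is the scaled RNA:gDNA barcode ratio, with the median construct carrying the unmutated site as reference.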

[1] = experiment (reporter, strain, medium): exp 2b: truncated aprE reporter, strain BJT200
[2] = experiment (reporter, strain, medium): exp 4a: truncated aprE reporter, strain BJT201 with 2% xylose (RNase J1 expressed)

Row | Sequence | cleaved RNA product abundance [1] | cleaved RNA product abundance [2] | cleaved RNA product abundance (experiment (reporter, strain, medium): exp 6: tetM reporter, strain 168)
1 | ACAGACGAAGGAGCCGCAAAGAAGTTATTAAGGGATGAATAATCCGTCATTATAAATATCTCTCACTTATTTAAA | 0.136 |  | 
2 | ACAGACGAAGGAGCCGCAAAGAAGTTATTAAGGGATGAATAATCCGTCGATATAAATATCTCTCACTTATTTAAA | 0.0608 | 0.106 | 
3 | ACAGACGAAGGAGCCGCAAAGAAGTTATTAAGGGATGAATAATCCTACAATATAAATATCTCTCACTTATTTAAA |  | 0.295 | 
4 | ACAGACGAAGGAGCCGCAAAGAAGTTATTAAGGGATGAATAATCCTCAATATAAATATCTCTCACTTATTTAAAG | 0.205 | 0.309 | 
5 | ACAGACGAAGGAGCCGCAAAGAAGTTATTAAGGGATGAATAATCCTCCAATATAAATATCTCTCACTTATTTAAA | 0.127 |  | 
6 | ACAGACGAAGGAGCCGCAAAGAAGTTATTAAGGGATGAATAATCCTTAAATATAAATATCTCTCACTTATTTAAA |  | 0.581 | 
7 | ACAGACGAAGGAGCCGCAAAGAAGTTATTAAGGGATGAATAATCCTTCAAAATAAATATCTCTCACTTATTTAAA | 0.259 | 0.253 | 
8 | ACAGACGAAGGAGCCGCAAAGAAGTTATTAAGGGATGAATAATCCTTCAACATAAATATCTCTCACTTATTTAAA | 0.159 |  | 
9 | ACAGACGAAGGAGCCGCAAAGAAGTTATTAAGGGATGAATAATCCTTCAAGATAAATATCTCTCACTTATTTAAA |  | 0.162 | 
10 | ACAGACGAAGGAGCCGCAAAGAAGTTATTAAGGGATGAATAATCCTTCAATAAAAATATCTCTCACTTATTTAAA | 0.185 |  | 
11 | ACAGACGAAGGAGCCGCAAAGAAGTTATTAAGGGATGAATAATCCTTCAATATAAACATCTCTCACTTATTTAAA | 0.415 | 0.33 | 
12 | ACAGACGAAGGAGCCGCAAAGAAGTTATTAAGGGATGAATAATCCTTCAATATAAATAACTCTCACTTATTTAAA | 0.395 | 0.935 | 
13 | ACAGACGAAGGAGCCGCAAAGAAGTTATTAAGGGATGAATAATCCTTCAATATAAATATCTCTCACTTATTTAAA | 0.442 | 0.576 | 0.617
14 | ACAGACGAAGGAGCCGCAAAGAAGTTATTAAGGGATGAATAATCCTTCAATATAAATATCTCTCACTTATTTAAG |  | 0.558 | 
15 | ACAGACGAAGGAGCCGCAAAGAAGTTATTAAGGGATGAATAATCCTTCAATATAAATTTCTCTCACTTATTTAAA |  | 0.346 | 
16 | ACAGACGAAGGAGCCGCAAAGAAGTTATTAAGGGATGAATAATCCTTCAATATAAGTATCTCTCACTTATTTAAA |  | 0.213 | 
17 | ACAGACGAAGGAGCCGCAAAGAAGTTATTAAGGGATGAATAATCCTTCAATATAATTATCTCTCACTTATTTAAA | 0.219 | 0.387 | 
18 | ACAGACGAAGGAGCCGCAAAGAAGTTATTAAGGGATGAATAATCCTTCAATATACATATCTCTCACTTATTTAAA | 0.334 | 0.785 | 
19 | ACAGACGAAGGAGCCGCAAAGAAGTTATTAAGGGATGAATAATCCTTCAATATATATATCTCTCACTTATTTAAA |  | 0.604 | 
20 | ACAGACGAAGGAGCCGCAAAGAAGTTATTAAGGGATGAATAATCCTTCAATATGAATATCTCTCACTTATTTAAA |  | 0.18 | 
21 | ACAGACGAAGGAGCCGCAAAGAAGTTATTAAGGGATGAATAATCCTTCAATGTAAATATCTCTCACTTATTTAAA |  | 0.167 | 
22 | ACAGACGAAGGAGCCGCAAAGAAGTTATTAAGGGATGAATAATCCTTCAATTTAAATATCTCTCACTTATTTAAA | 0.144 | 0.138 | 
23 | ACAGACGAAGGAGCCGCAAAGAAGTTATTAAGGGATGAATAATCCTTCAGTATAAATATCTCTCACTTATTTAAA |  | 0.166 | 
24 | ACAGACGAAGGAGCCGCAAAGAAGTTATTAAGGGATGAATAATCCTTCATTATAAATATCTCTCACTTATTTAAA |  | 0.313 | 
25 | ACAGACGAAGGAGCCGCAAAGAAGTTATTAAGGGATGAATAATCCTTCCATATAAATATCTCTCACTTATTTAAA | 0.19 |  | 
